Test results published in publication PMC12749422.

Tests used:
[1] = target: A/Singapore/INFIMH/16 (Sing/16) H3 hemagglutinin, recombinant HA-GCN4-2x sfGFP, glycosylated (influenza A virus A/Singapore/INFIMH/16 (H3N2)); assay: cryo-EM structure
[2] = target: A/Singapore/INFIMH/16 (Sing/16) H3 hemagglutinin, recombinant HA-GCN4-2x sfGFP, treated with endo H (influenza A virus A/Singapore/INFIMH/16 (H3N2)); assay: cryo-EM structure

Substance	stoichiometry N [1]	stoichiometry N [2]
A/Singapore/INFIMH/16 (Sing/16) H3 hemagglutinin, recombinant HA-GCN4-2x sfGFP, glycosylated (natural protein)	3	
A/Singapore/INFIMH/16 (Sing/16) H3 hemagglutinin, recombinant HA-GCN4-2x sfGFP, treated with endo H (natural protein)		3
